{
  "source": "paper PMC6224377",
  "about": "(Frontiers in Immunology, 2018)",
  "binders": {"B1": {"name": "GK-1E5 (antibody, V domains shown)", "VH": "EVQLVESGGGVVQPGRSLRLSCAASGFTFRSYGMHWVRQAPGKGLEWVAIIWYDGSKKYYTDSVQGRFTISRDNSKNTLYLQMNSLRAEDTAVYYCARPGIAMTGLDYWGQGTLVTVSS", "VL": "DIQLTQSPSTLSASVGDRVTITCRASQSISSWLAWYQQKPGKAPKLLIYKASSLESGVPSRFSGSGSGTEFTLTISSLQPDDFATYYCQQYNNYWTFGQGTKVEIK"}, "B2": {"name": "GK-2G8 (antibody, V domains shown)", "VH": "QVQLQESGGGVVQPGRSLRLSCAASGFTFRSYGMHWVRQAPGKGLEWVAIIWYDGSKKYYTDSVKGRFTISRDNSKNTLYLQMNSLRAEDTAVYYCARPGVAMTGLDLWGQGTLVTVSS", "VL": "EIVMTQSPSTLSASVGDRVTITCRASQSISSWLAWYQQKPGKAPKLLIYKASSLESGVPSRFSGSGSGTEFTLTISSLQPDDFATYYCQQYNNYWTFGQGTKVDIK"}, "B3": {"name": "GK-5A1 (antibody, V domains shown)", "VH": "QVQLVESGGGVVQPGRSLRLSCAASGFTFSSYGMYWVRQAPGKGLEWVAVIWNDGSNKYYADSVKGRFTISRDNSKNTLYLQMNSLRAEDTAVYYCAREGSGWYDYYYGMDVWGQGTTVTVSS", "VL": "EIVLTQSPSTLSASVGDRVTITCRASQSISSWLAWYQQKPGKAPKLLIYKASSLESGVPSRFSGSGSGTEFTLTISSLQPDDFATYYCQQYNSYWTFGQGTKVDIK"}, "B4": {"name": "MK-3B12 (antibody, V domains shown)", "VH": "EVQLVESGPGLLKPSETLSLTCAVSGYSISSGYYWGWIRQPPGKGLEWIGSIYQSGSTHYNPSLKSRVTISVDTSKNQFSLKLTSVTAADTAVYYCAREDRAGWYPFDCWGQGTLVTVSS", "VL": "DIVMTQSPSTLSASVGDRVTITCRASQSISSWLAWYQQKPGKAPKLLIYKASSLESGVPSRFSGSGSGTEFTLTISSLQPDDFATYYCQQYNNYWTFGQGTKVEIK"}, "B5": {"name": "MK-24C10 (antibody, V domains shown)", "VH": "QVQLVESGGGVVQPGRSLRLSCAASGFTFSSYGMHWVRQAPGKGLEWVAVIWFDGTNKHYADSVKGRFTISRDNSKNTLYLQMNSLRAEDTAVYYCARDKGEWFGELRYYYYGMDVWGQGTTVTVSS", "VL": "not shown"}, "B6": {"name": "MK-7C3 (antibody, V domains shown)", "VH": "EVQLLETGGGVVQPGRSLRLSCVASGFTFRSHGMHWVRQAPGKGLEWVALIWYDGSKKYYADSVKGRFTISRDNSKNTLYLQMNSLRAEDTAVYYCARVGAGLYLDYWGQGTLVTVSS", "VL": "AIRMTQSPSTLSASVGDRVTITCRASQTISNWLAWFQQKPGKAPKVLIYKASSLESGVPSRFSGSGSGTEFTLTISSLQPDDFASYYCQQYNSYSYTFGQGTRLEIK"}, "B7": {"name": "GK-5E1 (antibody, V domains shown)", "VH": "QVTLKESGGDVVQPGRSLRLSCAASGFTFRTYGMHWVRQAPGKGPEWVALIWYDGSKKYYADSVKGRFTISRDNSKNTLYLQMNSLRAEDTAVYYCVRVRFGELYFQHWGQGTLVTVSS", "VL": "not shown"}, "B8": {"name": "GK-22G12 (antibody, V domains shown)", "VH": "EVQLVESGGGLVQSGGSLRLSCAASGFTFSSQRLSWVRQAPGKGLEWVANIKQDGSEKNYVDSVRGRFTISRDIAKNSLYLQMNSLRAEDTAVYYCARDGYRNGWHIPEDYWGQGTLVTVSS", "VL": "DIVMTQSPSSLSASVGDRVTITCRASQGISNYLAWYQQKPGKVPKLLIYAASTLQSGVPSRFSGSGSGTDFTLTISSLQPEDVSTYYCQKHNRAPWTFGQGTKLEIK"}, "B9": {"name": "GK-5G12 (antibody, V domains shown)", "VH": "QITLKESGGGVVQPGRSLRLSCAASGFTFRTYGMHWVRQAPGKGLEWVALIWYDGSNKYYADSVKGRFTISRDNSKNTLYLQMNSLRAEDTAVYYCIRVKFGDLYFQHWGQGTLVTVSS", "VL": "EIVLTQSPSSLSASVGDRVTITCRASQGISNYLAWYQQKPGKVPKLLIYAASTLQSGVPSRFSGSGSGTDFTLTISSLQPEDVATYYCQKYNSAPYTFGQGTKLEIK"}},
  "key": {"[1]": {"target": "T1, hROR2-ECD-Twin-Strep (soluble human ROR2 extracellular domain fused to a Twin-Strep-tag) (Homo sapiens (Human)., UniProt Q01974)", "T1 construct": "signal peptide in the construct; extracellular domain of human receptor tyrosine kinase-like orphan receptor 2 (ROR2), NP_004551.2, amino acids 1-403; Gene synthesis (GenScript), vector pCB14b; also called hROR2-Twin-Strep; human ROR2-ECD-Twin-Strep; not shown: Twin-Strep-tag, C-terminal, kept", "T1 sequence (Q01974 34-403)": "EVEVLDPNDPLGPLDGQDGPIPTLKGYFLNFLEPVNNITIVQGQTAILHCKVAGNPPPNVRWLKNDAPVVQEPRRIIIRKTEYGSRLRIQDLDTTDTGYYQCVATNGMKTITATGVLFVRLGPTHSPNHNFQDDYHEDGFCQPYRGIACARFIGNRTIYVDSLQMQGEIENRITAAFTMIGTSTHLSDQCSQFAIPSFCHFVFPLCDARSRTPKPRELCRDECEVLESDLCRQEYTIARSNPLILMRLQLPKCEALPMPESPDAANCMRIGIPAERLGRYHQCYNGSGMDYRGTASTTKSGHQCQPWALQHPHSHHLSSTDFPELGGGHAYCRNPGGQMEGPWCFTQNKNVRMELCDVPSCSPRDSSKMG", "assay": "ELISA; MaxiSorp plates coated with 2 μg/ml antigen in 100 mM bicarbonate/carbonate buffer; purified monoclonal antibodies from 0.5-2 μg/ml in serial dilutions in PBS-T/1% BSA, 1 h at 37°C; detected with HRP-conjugated F(ab')2 anti-human Fcγ", "details": "both partners purified"}, "[2]": {"target": "T1, hROR2-ECD-Twin-Strep (soluble human …)", "assay": "SPR; multi-cycle SPR, Biacore T200; antibodies captured on a CM5 Protein A chip or by Protein G immobilized on a CM5 chip (capture levels 148 to 845 RU); hROR2-ECD-Twin-Strep as analyte, 2-fold serial dilutions 40 nM to 2.5 nM in running buffer", "details": "both partners purified"}},
  "data": [
    {"binder": "B1", "values": [
      {"measurement": "binding result", "setting": "[1]", "value": "binds"}
    ]},
    {"binder": "B2", "values": [
      {"measurement": "binding result", "setting": "[1]", "value": "binds"}
    ]},
    {"binder": "B3", "values": [
      {"measurement": "binding result", "setting": "[1]", "value": "binds"}
    ]},
    {"binder": "B4", "values": [
      {"measurement": "binding result", "setting": "[1]", "value": "binds"}
    ]},
    {"binder": "B5", "values": [
      {"measurement": "binding result", "setting": "[2]", "value": "binds"}
    ]},
    {"binder": "B6", "values": [
      {"measurement": "binding result", "setting": "[2]", "value": "binds"}
    ]},
    {"binder": "B7", "values": [
      {"measurement": "binding result", "setting": "[1]", "value": "binds"}
    ]},
    {"binder": "B8", "values": [
      {"measurement": "binding result", "setting": "[2]", "value": "binds"}
    ]},
    {"binder": "B9", "values": [
      {"measurement": "binding result", "setting": "[1]", "value": "binds"}
    ]}
  ]
}
